Source: PMC7260716, “Transcriptional analysis of arogenate dehydratase genes identifies a link between phenylalanine biosynthesis and lignin biosynthesis”

B1: probe A1 (PADT-A 225-329) (dsDNA)
DNA 1: TAACTTGCGCGGGTGTTTACACACCTAACCACTCCGGAGCTTCCATGCTTCATCCACGAGTCAGAGGGGCCTTTCCTCCAACCACCCTAGATCAGCATGAGCTAT
DNA 2: ATAGCTCATGCTGATCTAGGGTGGTTGGAGGAAAGGCCCCTCTGACTCGTGGATGAAGCATGGAAGCTCCGGAGTGGTTAGGTGTGTAAACACCCGCGCAAGTTA
B2: probe D2 (PADT-D 192-318) (dsDNA)
DNA 1: GCTGGTGAGAAGGGCCAAACCAAAAAAAAACCAAACGAAATCACAGCGTACGATCTAACTAACCGTGTTGAATAGTCCCGTGACGTAGCCGCCGTAATGTGCAACAACCCACCATGGGATGGAGCAG
DNA 2: CTGCTCCATCCCATGGTGGGTTGTTGCACATTACGGCGGCTACGTCACGGGACTATTCAACACGGTTAGTTAGATCGTACGCTGTGATTTCGTTTGGTTTTTTTTTGGTTTGGCCCTTCTCACCAGC
B3: probe A2 (PADT-A 281-370) (dsDNA)
DNA 1: ACAACAGACTGGTAAGGCACACGTGCTTCCACGAGATCCACTAACTTGCGCGGGTGTTTACACACCTAACCACTCCGGAGCTTCCATGCT
DNA 2: AGCATGGAAGCTCCGGAGTGGTTAGGTGTGTAAACACCCGCGCAAGTTAGTGGATCTCGTGGAAGCACGTGTGCCTTACCAGTCTGTTGT

Tests used:
PpMYB8 [1] = target: T1, PpMYB8 (Pinus pinaster, UniProt D7GLD4 1-534); test: EMSA; EMSA buffer, salt, pH and temperature not given in material (electrophoresis as in Rueda-López et al. 2008); conditions: protein: recombinant; label: 5'-biotin
T1 sequence (D7GLD4 entry or part of it): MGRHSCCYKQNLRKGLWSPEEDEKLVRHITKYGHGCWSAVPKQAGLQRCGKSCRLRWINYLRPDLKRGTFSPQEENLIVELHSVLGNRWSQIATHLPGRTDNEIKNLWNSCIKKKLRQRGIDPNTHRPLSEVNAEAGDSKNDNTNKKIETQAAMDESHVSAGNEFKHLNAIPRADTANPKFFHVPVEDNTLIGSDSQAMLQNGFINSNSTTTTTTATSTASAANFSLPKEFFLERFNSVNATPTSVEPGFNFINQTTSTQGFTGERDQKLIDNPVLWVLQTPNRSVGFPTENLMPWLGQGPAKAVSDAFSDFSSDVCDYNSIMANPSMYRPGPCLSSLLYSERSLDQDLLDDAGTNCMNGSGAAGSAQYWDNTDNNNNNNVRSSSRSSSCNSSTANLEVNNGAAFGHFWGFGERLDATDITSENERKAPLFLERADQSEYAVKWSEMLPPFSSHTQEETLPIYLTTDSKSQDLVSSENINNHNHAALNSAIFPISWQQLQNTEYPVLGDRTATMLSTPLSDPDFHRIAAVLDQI

PpMYB8 [2] = target: T1, PpMYB8; test: EMSA; shift reduced by unlabeled probe; EMSA buffer, salt, pH and temperature not given in material (electrophoresis as in Rueda-López et al. 2008); conditions: protein: recombinant; label: 5'-biotin

Row | Binder | binding result (PpMYB8 [1]) | binding result (PpMYB8 [2])
1 | B1 | no binding | –
2 | B2 | no binding | –
3 | B3 | – | binds
